The values below come from patent publication US6730828B1, “Isolated nucleic acids encoding a wheat glutathione transferase, plants transformed therewith and methods of use thereof” (Aventis Agriculture Limited, priority 1997, dated 2004).

First the molecules themselves.
B1: WIC 4: recombinant type I wheat GST, SEQ ID No. 11, amino acid SEQ ID No. 12; coding sequence identical in WIC 10 (protein)
chain: MAPVKVFGPAMSTNVARVLVCLEEVGAEYEVVDIDFKAMEHKSPEHLVRNPFGQIPAFQDGDLLLFESRAIARYVLRKYKKNEVDLLREGDLKEAAMVDVWTEVDAHTYNPAISPIVYECSSTAHARLPTNQTVVDESLEKLKNVLEVYEARLSKHDYLAGDFVSFADLNHFPYTFYFMATPHAALFDSYPHVKAWWERIMARPAVKKLAAQMVPKKP
modifications: Triticum aestivum L.
B2: WIC 2: recombinant type I wheat GST, SEQ ID No. 5, amino acid SEQ ID No. 6 (protein)
chain: MAPAVKVYGWAVSPFVARPLLCLEEAGVEYELVSMSRAAGDHRQPDFLARNPFGQVPVLEDGDLTLFESRAIARHVLRKHKPELLGCGSPEAEAMVDVWLEVEAHQYNPAASAIVVQCIILPLLGGARDQAVVDENVAKLKKVLEVYEARLSASRYLAGDDISLADLSHFPFTRYFMETEYAPLVAELPHVNAWWEGLKARPAARKVTELMPPDLGLGKKAE
modifications: Triticum aestivum L.
B3: WIC 5: recombinant type I wheat GST, SEQ ID No. 9, amino acid SEQ ID No. 10 (protein)
chain: MAPIKLYGMMLSANVTRVTTLLNELGLEFDFVDVDLRTGAHKHPDFLKLNPFGQIPALQDGDEVVFESRAINRYIATKYGASLLPTPSAKLEAWLEVESHHFYPPARTLVYELVIKPMLGAPTDAAEVDKNAADLAKLLDVYEAHLAAGNKYLAGDAFPLADANHMSYLFMLTKSPKADLVASRPHVKAWWEEISARPAWAKTVASIPLPPAV
modifications: Triticum aestivum L.
B4: WIC 3: recombinant type I wheat GST, SEQ ID No. 7, amino acid SEQ ID No. 8; coding sequence identical in WIC 7 and WIC 8 (protein)
chain: MAPVKLYGATLSWNVTRCVAALEEAGVQYEIVPINFGTGEHKSPDHLARNPFGQVPALQDGDLYVFESRAICKYACRKNKPELLKEGDIKESAMVDVWLEVEAHQYTAALSPILFECLIHPMLGGATDQKVIDDNLVKIKNVLAVYEAHLSKSKYLAGDFLSLADLNHVSVTLCLAATPYASLFDAYPHVKAWWTDLLARPSVQKVAALMKP
modifications: Triticum aestivum L.
B5: Triticum aestivum GST 1 subunit (25 kDa) (enzyme)
chain: MAGEKGLVLLDFWVSPFGQRVRIALAEKGLPYEYAEEDLMAGKSDRLLRANPVHKKIPVLLHDGRAVNESLIILQYLEEAFPDAPALLPSDPYARAQARFWADYVDKKVYDCGSRLWKLKGEPQAQARAEMLDILKTLDGALGDKPFFGGDKFGFVDAAFAPFTAWFHSYERYGEFSLPEVAPKIAAWAKRCGERESVAKSLYSPDKVYDFIGLLKKKYGIE
notes: Native subunit in wheat shoot extracts; also called TaGST1

System in one series: not listed separately
Description: GST activity toward herbicide metolachlor (HPLC-based assay). The class given is biochemical. The settings on record: recombinant wheat GST expressed in E. coli, affinity purified; ± standard error. As to the method: (§1) The purified isoenzymes were assayed for GST activity toward herbicides using the HPLC-based assays described by Edwards R. and Cole D. J. (Pesticide Biochemistry and Physiology Vol. 54, pp96-104 (1996)) and the results are presented in Table 2. […] These isoenzymes had additional activities as glutathione peroxidases able to reduce linoleic acid hydroperoxide, a major reaction product formed during membrane peroxidation in plants (Williamson and Beverly. J. Cereal Sci. 8, 1988, 155-163).
(§2) To assay the recombinant fusion proteins for GST activity, the E. coli were grown in the presence of IPTG and then pelleted by centrifugation. The bacteria were then lysed by sonication and the protein precipitated using 80% ammonium sulphate. After resuspension and desalting, GSTs were purified by affinity chromatography. The WIC 3 fusion protein was purified using sulphobromophthalein-S-glutathione affinity chromatography (Mozer et al. Biochem. 22, 1983, 1068-1072) while the other WIC fusion proteins were purified using glutathione-agarose (Mannervik and Guthenberg. Methods Enzymol. 77 1981, 231-235).The purified enzymes were then assayed for GST activities toward herbicides (Table 3) and GST activities toward non-herbicide substrates and glutathione peroxidase activities toward organic hydroperoxides (Table 4).
(§3) A polyclonal antiserum was raised in a rabbit to a mixture of TaGST1-2 and TaGST1-3. When tested against crude extracts from safener-treated wheat shoots the antiserum recognised both the 25 kDa TaGST1 subunit and the 26 kDa safener-inducible TaGST2 and TaGST3 subunits. The antiserum was then used in conjunction with the antiserum raised to TaGST1-1 to immuno screen the cDNA library prepared from fenchlorazole ethyl treated wheat shoots as described in example 1. Duplicate lifts were taken from the plated out library and the first blot screened with the antiserum raised against TaGST1-2 and TaGST1-3. The second blot was screened with the antiserum raised to TaGST1-1. Five plaques were identified from the first blot which were absent from the second blot corresponding to cDNAs encoding TaGST2 or TaGST3 like polypeptides and theses clones were purified and the respective plasmids sequenced. […] The other three clones ICC. ICP and ICV had identical DNA sequences (SEQ ID No. 17) and predicted amino acid sequence (SEQ ID No. 18). GST ICJ was sub-cloned into the pET 11a vector after using PCR to introduce a Nde 1 restriction site into the translation start site, using the primer 5′ AGGTAGTTACATATGGCCGGAGGA 3′ (SEQ ID No. 19) in the amplification. following sub-cloning, the sequence of GST ICJ was re-checked to ensure no PCR induced errors had been introduced. The recombinant GST ICJ was then expressed in E. coli and purified by S-hexylglutathione affinity chromatography. The purified GST ICJ was assayed for activities as a GST (Table 3) and as a glutathione peroxidase (Table 4). […] GST ICV was finally expressed as the respective beta-galactosidase fusion protein using the Bluescript plasmid and assayed for GST activity (Table 3 ) and glutathione peroxidase activity (Table 4) in crude bacterial lysates. The specific activity of GST ICV toward these substrates was then calculated by I) subtracting the low levels of GST and GPOX activity present due the endogenous activities in the E. coli and ii) determining the proportion of protein in the lysate present as recombinant GST ICV from SDS-PAGE analysis, by densitometry analysis of polypeptides stained with Coomassie blue.
In the case of B1, the “GST activity toward metolachlor” value is given as 0.037 ± 0.003 nkat.mg^−1.

Consider B2, for which the “GST activity toward metolachlor” value stood at 0.512 ± 0.04 nkat.mg^−1.

Regarding B3, the “GST activity toward metolachlor” value is reported as 0.040 ± 0.004 nkat.mg^−1.

For the molecule B4, the “GST activity toward metolachlor” value is recorded as 0.053 ± 0.004 nkat.mg^−1.

System in a further series: not listed separately
Description: GST activity toward ethacrynic acid. The class given is biochemical. The settings on record: recombinant wheat GST, affinity purified; ± standard error; N.D = not detected. The procedure: as §2
On to B1, for which the “GST activity toward ethacrynic acid” value was 1.4 ± 0.3 nkat.mg^−1.

System in another series: not listed separately
Briefly: GST activity toward benzyl isothiocyanate. The class given is biochemical. The settings on record: recombinant wheat GST, affinity purified; ± standard error. The procedure:
as §2
As to B1, the “GST activity toward benzyl isothiocyanate” value is given as 4.2 ± 0.4 nkat.mg^−1.

In the case of B2, the “GST activity toward benzyl isothiocyanate” value is reported as 33.3 ± 4.5 nkat.mg^−1.

Take B3: the “GST activity toward benzyl isothiocyanate” value is given as 9.4 ± 2.0 nkat.mg^−1.

With B4, the “GST activity toward benzyl isothiocyanate” value is 9.0 ± 0.5 nkat.mg^−1.

System in another series: not listed separately
Description: GST activity toward crotonaldehyde. The class given is biochemical. The settings on record: recombinant wheat GST, affinity purified; ± standard error. As to the method:
as §2
As to B1, the “GST activity toward crotonaldehyde” value amounted to 5.5 ± 0.6 nkat.mg^−1.

As to B2, the “GST activity toward crotonaldehyde” value is listed as 5.5 ± 1.3 nkat.mg^−1.

Consider B3, for which the “GST activity toward crotonaldehyde” value is given as 4.5 ± 0.5 nkat.mg^−1.

For B4, the “GST activity toward crotonaldehyde” value is given as 6.3 ± 0.9 nkat.mg^−1.

System in the next series: not listed separately
Briefly: GST activity toward herbicide fluorodifen (HPLC-based assay). The class given is biochemical. The conditions noted are these: recombinant wheat GST expressed in E. coli, affinity purified; ± standard error. The procedure: as §1, §2, §3
With B1, the “GST activity toward fluorodifen” value was 0.036 ± 0.004 nkat.mg^−1.

Regarding B2, the “GST activity toward fluorodifen” value was determined as 0.096 ± 0.002 nkat.mg^−1.

On to B3, for which the “GST activity toward fluorodifen” value is 0.030 ± 0.002 nkat.mg^−1.

In the case of B4, the “GST activity toward fluorodifen” value came to 0.014 ± 0.006 nkat.mg^−1.

System in another series: not listed separately
Briefly: GST activity toward herbicide fenoxaprop-ethyl (HPLC-based assay). It is filed as biochemical. The conditions noted are these: recombinant wheat GST expressed in E. coli, affinity purified; ± standard error. The procedure: as §1, §2, §3
Turning to B1, the “GST activity toward fenoxaprop-ethyl” value is 0.012 ± 0.001 nkat.mg^−1.

Take B2: the “GST activity toward fenoxaprop-ethyl” value is given as 0.085 ± 0.002 nkat.mg^−1.

As for B3, the “GST activity toward fenoxaprop-ethyl” value is given as 0.067 ± 0.003 nkat.mg^−1.

Consider B4, for which the “GST activity toward fenoxaprop-ethyl” value stood at 0.093 ± 0.002 nkat.mg^−1.

System in a further series: not listed separately
Description: GST activity toward CDNB. The class given is biochemical. The conditions noted are these: recombinant wheat GST expressed in E. coli, affinity purified. The procedure:
as §1
To confirm that TaGST1 encoded a GST, it was expressed as a fusion protein with beta-galactosidase using the pBluescript plasmid in E. coli strain SOLR. TaGST1 clones were inoculated into LB liquid medium and were grown overnight at 37/C on all orbital shaker in the presence of IPTG. Bacteria were then pelleted by centrifugation, lysed by sonication and assayed for GST activity toward CDNB and analysed by SDS-PAGE and Western blotting using the anti-TaGSTI-I serum. With all six TaGST1 clones, GST activity toward CDNB could be determined in the crude extracts in the range 30-50 nkat/mg crude lysate.
as §2
as §3, with “The specific activity of GST ICV toward these substrates was then calculated by I) subtracting the low levels of GST and GPOX activity present due the endogenous activities in the E. coli and ii) determining the proportion of protein in the lysate present as recombinant GST ICV from SDS-PAGE analysis, by densitometry analysis of polypeptides stained with Coomassie blue.” left out
Turning to B1, the “GST activity toward CDNB” value was 980 nkat.mg^−1.

Turning to B2, the “GST activity toward CDNB” value amounted to 187 nkat.mg^−1.

On to B3, for which the “GST activity toward CDNB” value is reported as 174 nkat.mg^−1.

Take B4: the “GST activity toward CDNB” value is listed as 2,519 nkat.mg^−1.

A further series concerns the molecule itself. Briefly: subunit composition of purified isoenzymes (anion exchange, reversed-phase HPLC, SDS-PAGE).
Details: not given
As to the method:
The component polypeptides in the active fractions were then analysed by silver staining after resolution by sodium dodecyl sulphate polyacrylamide gel electrophoresis (SDS-PAGE). It was concluded that in fenchlorazole-ethyl-treated wheat the polar GSTs were composed of 25 kDa and 26 kDa polypeptides, while the hydrophobic fraction contained 25 kDa, 26 kDa and 24 kDa polypeptides. Further analysis by reversed-phase HPLC confirmed the subunit compositions (FIG. 2). Based on the combined analyses by Q-sepharose, HPLC and SDS-PAGE these GST polypeptides were named as described in Table 1, which also contains details of how these subunits associate together to form the active dimers found in plants and the relative abundance of these subunits in extracts from unsafened and fenchlorazole-ethyl treated (safened) plants.
With B5, the binding result is on record as “binds”.

System in a further series: not listed separately
Briefly: Glutathione peroxidase activity toward cumene hydroperoxide. The class given is biochemical. The conditions noted are these: recombinant wheat GST, affinity purified; ± standard error (n = 3). The procedure: as §2, §3
On to B1, for which the “Glutathione peroxidase activity toward cumene hydroperoxide” value was 6.2 ± 0.3 absorbance change at 340 nm.mg^−1.

As to B2, the “Glutathione peroxidase activity toward cumene hydroperoxide” value is 28.2 ± 1.7 absorbance change at 340 nm.mg^−1.

Regarding B3, the “Glutathione peroxidase activity toward cumene hydroperoxide” value was 1.3 ± 0.2 absorbance change at 340 nm.mg^−1.

As to B4, the “Glutathione peroxidase activity toward cumene hydroperoxide” value was 1.4 ± 0.3 absorbance change at 340 nm.mg^−1.
